How the values were obtained:
Assay in all cases: cell-based or functional assay
[1] = biological target: HIV-1 97ZA012 envelope glycoprotein (Env) on pseudovirus (HIV-1)
[2] = biological target: HIV-1 Env of isolate MGRM-D-004 (clade D) (HIV-1)
[3] = biological target: HIV-1 VLGCA1 envelope glycoprotein (Env) on pseudovirus (HIV-1)
[4] = biological target: HIV-1 Env of isolate MGRM-D-013 (HIV-1)
[5] = biological target: HIV-1 Env of isolate MGRM-D-012 (clade D) (HIV-1)
[6] = biological target: HIV-1 MGRM-D-018 envelope glycoprotein (Env) on pseudovirus (HIV-1)
[7] = biological target: HIV-1 Env of isolate MGRM-AE-001 (HIV-1)
[8] = biological target: HIV-1 Env of isolate 92UG031 (HIV-1)
[9] = biological target: HIV-1 94KE105 envelope glycoprotein (Env) (HIV-1)
[10] = biological target: HIV-1 Env of isolate MGRM-G-016 (clade G pseudovirus) (HIV-1)
[11] = biological target: HIV-1 MGRM-F1-022 Env (pseudovirus) (HIV-1)
[12] = biological target: HIV-1 Env of isolate 92UG024 (clade D) (HIV-1)
[13] = biological target: HIV-1 MGRM-Chronic-B-002 Env (pseudovirus) (HIV-1)
[14] = biological target: HIV-1 VLGCB3 Env (pseudovirus) (HIV-1)
[15] = biological target: HIV-1 Env of isolate 92UG001 (subtype D) (HIV-1)
[16] = biological target: HIV-1 Env of isolate MG RM-D-026 (subtype D) (HIV-1)
[17] = biological target: HIV-1 6535.3 Env (pseudovirus) (HIV-1)
[18] = biological target: HIV-1 Env of isolate MGRM-C-012 (pseudovirus) (HIV-1 isolate MGRM-C-012, subtype C)
[19] = biological target: HIV-1 THR0.18 Env (pseudovirus) (HIV-1)
[20] = biological target: HIV-1 PVO.4 Env (pseudovirus) (HIV-1)
[21] = biological target: HIV-1 MGRM-Chronic-B-003 Env (pseudovirus) (HIV-1)
[22] = biological target: HIV-1 APV_6 Env (pseudovirus) (HIV-1)
[23] = biological target: HIV-1 MGRM-Chronic-B-012 Env (pseudovirus) (HIV-1)
[24] = biological target: HIV-1 CAAN.A2 Env (pseudovirus) (HIV-1)
[25] = biological target: HIV-1 Env of isolate MGRM-C-007 (pseudovirus) (HIV-1 isolate MGRM-C-007, subtype C)
[26] = biological target: HIV-1 JR-CSF Env L125A (HIV-1 (isolate JR-CSF)) (UniProt P20871)
[27] = biological target: HIV-1 JR-CSF Env T162A (HIV-1 (isolate JR-CSF)) (UniProt P20871)
[28] = biological target: HIV-1 Env of isolate MGRM-A-014 (clade A), on pseudovirus (HIV-1)
[29] = biological target: HIV-1 Env of isolate MGRM-C-008 (HIV-1)
[30] = biological target: HIV-1 Env of isolate MGRM-C-024 (HIV-1)
[31] = biological target: HIV-1 Env of isolate MGRM-C-013 (HIV-1)
[32] = biological target: HIV-1 Env of isolate MGRM-C-019 (HIV-1)
[33] = biological target: HIV-1 Env of isolate 97ZA012 (HIV-1)
[34] = biological target: HIV-1 Env of isolate VLGCA1 (clade A), on pseudovirus (HIV-1)
[35] = biological target: HIV-1 Env of isolate MGRM-C-020 (HIV-1)
[36] = biological target: HIV-1 Env of isolate MGRM-D-001 (HIV-1)
[37] = biological target: HIV-1 Env of isolate MGRM-F1-013 (subtype F), on pseudovirus (HIV-1)
[38] = biological target: HIV-1 Env of isolate MGRM-C-022 (HIV-1)
[39] = biological target: HIV-1 Env of isolate 93IN905 (HIV-1)

Chain of 5329_C19 (PGT-136) (antibody) (VH): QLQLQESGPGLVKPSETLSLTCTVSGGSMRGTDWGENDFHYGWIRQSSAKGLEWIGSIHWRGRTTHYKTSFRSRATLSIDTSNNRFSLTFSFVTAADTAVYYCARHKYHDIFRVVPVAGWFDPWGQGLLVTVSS
Chain of 5329_C19 (PGT-136) (antibody) (VL): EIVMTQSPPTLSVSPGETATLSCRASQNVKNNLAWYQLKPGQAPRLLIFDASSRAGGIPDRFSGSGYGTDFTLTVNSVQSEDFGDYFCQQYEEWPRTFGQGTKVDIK

Substance | IC50 (ug/ml), neutralizing activity [6] | IC50, pseudovirus neutralization [13] | IC50, pseudovirus neutralization [14] | IC50 (µg/mL), pseudovirus neutralization [15] | IC50 (µg/mL), pseudovirus neutralization [16] | IC50, pseudovirus neutralization [17] | IC50 (µg/mL) neutralization [18] | IC50, pseudovirus neutralization [19] | IC50, pseudovirus neutralization [20] | IC50, pseudovirus neutralization [21] | IC50, pseudovirus neutralization [22] | IC50, pseudovirus neutralization [23] | IC50, pseudovirus neutralization [24] | IC50 (µg/mL) neutralization [25] | Fold IC50 increase relative to wild-type [26] | Fold IC50 increase relative to wild-type [27] | further results
1496_C09 (PG9) (TCN-109) (antibody) | 2.04 µg/mL | – | – | – | – | – | – | – | – | – | – | – | – | – | – | – | IC50 (µg/ml), pseudovirus neutralization [1]: 1.27 µg/mL; IC50 (µg/ml), pseudovirus neutralization [2]: 0.03 µg/mL; IC50 (µg/ml), pseudovirus neutralization [3]: 0.07 µg/mL; IC50 (µg/mL), pseudovirus neutralization [4]: 0.021 µg/mL; IC50 (µg/ml), pseudovirus neutralization [5]: 9.31 µg/mL; IC50 neutralization [6]: 0.0444 µg/mL; IC80, neutralization [6]: 0.18 µg/mL; IC90, neutralization [6]: 0.43 µg/mL; IC95, neutralization [6]: 1.05 µg/mL; IC50 (µg/mL), pseudovirus neutralization [7]: 20.6 µg/mL; IC50 (µg/ml), pseudovirus neutralization [7]: 2.97 µg/mL; IC50 [8]: 3.6 µg/mL; IC50 (µg/ml), pseudovirus neutralization [9]: 29.6 µg/mL; IC50 (µg/ml), pseudovirus neutralization [10]: 0.4 µg/mL; IC50 (µg/ml), pseudovirus neutralization [11]: 0.06 µg/mL; IC50 (µg/ml), pseudovirus neutralization [12]: 1.91 µg/mL
4838_L06 (PGT-121) (antibody) | – | 0.386 µg/mL | 5 ng/mL | > 50 µg/mL | > 50 µg/mL | 5 ng/mL | 0.123 µg/mL | > 50 µg/mL | 0.137 µg/mL | 0.011 µg/mL | 0.018 µg/mL | 0.036 µg/mL | 0.011 µg/mL | 0.196 µg/mL | – | – | –
4858_P08 (PGT-123) (antibody) | 0.0047 µg/mL | 0.234 µg/mL | 4 ng/mL | > 50 µg/mL | > 50 µg/mL | 4 ng/mL | 0.605 µg/mL | > 50 µg/mL | 0.105 µg/mL | 0.008 µg/mL | 0.023 µg/mL | 0.227 µg/mL | 0.015 µg/mL | 0.547 µg/mL | 2.5 fold | 0.7 fold | IC50, pseudovirus neutralization [6]: 4.7 ng/mL; IC80, pseudovirus neutralization [6]: 0.0175 µg/mL; IC90 (pseudovirus neutralization) [6]: 0.0381 µg/mL; IC95, pseudovirus neutralization [6]: 0.0791 µg/mL
4877_D15 (PGT-122) (antibody) | 0.0115 µg/mL | 1.8 µg/mL | 8 ng/mL | > 50 µg/mL | > 50 µg/mL | 6 ng/mL | 2 µg/mL | > 50 µg/mL | 0.689 µg/mL | 0.008 µg/mL | 0.019 µg/mL | 0.066 µg/mL | 0.011 µg/mL | 3.35 µg/mL | – | – | –
5114_A19 (PGT-128) (antibody) | – | – | – | – | – | – | – | – | – | – | – | – | – | – | 2.9 fold | 1.1 fold | IC50 [4]: 8.85 µg/mL; IC50, single-round pseudovirus neutralization [28]: 7 ng/mL; IC50 [29]: 0.373 µg/mL; IC50 [30]: > 50 µg/mL; IC50 [31]: > 50 µg/mL; IC50 [32]: 0.01 µg/mL; IC50 [33]: 0.019 µg/mL; IC50, single-round pseudovirus neutralization [34]: 0.838 µg/mL; neutralization IC50 [8]: > 50 µg/mL; IC50 [35]: 5.85 µg/mL; IC50 [36]: 0.138 µg/mL; IC50, pseudovirus neutralization [37]: 12.7 µg/mL; IC50 [38]: 0.042 µg/mL; IC50 [39]: 9 ng/mL
5123_A06 (PGT-125) (antibody) | 0.0382 µg/mL | 0.064 µg/mL | 15 ng/mL | > 50 µg/mL | > 50 µg/mL | 10 ng/mL | > 50 µg/mL | > 50 µg/mL | 0.042 µg/mL | 0.157 µg/mL | 0.021 µg/mL | 0.036 µg/mL | 5.47 µg/mL | > 50 µg/mL | 1.6 fold | 0.5 fold | neutralization IC50 [6]: 0.0382 µg/mL; neutralization IC80 [6]: 0.144 µg/mL; neutralization IC90 [6]: 0.339 µg/mL; neutralization IC95 [6]: 0.892 µg/mL
5141_B17 (PGT-126) (antibody) | 0.0093 µg/mL | 0.078 µg/mL | 7 ng/mL | > 50 µg/mL | > 50 µg/mL | 22 ng/mL | 0.111 µg/mL | > 50 µg/mL | 0.017 µg/mL | 0.041 µg/mL | 0.007 µg/mL | 0.027 µg/mL | 0.273 µg/mL | 25.3 µg/mL | 1.2 fold | 0.6 fold | –
5145_B14 (PGT-127) (antibody) | – | 0.279 µg/mL | 22 ng/mL | > 50 µg/mL | > 50 µg/mL | 20 ng/mL | 1.07 µg/mL | > 50 µg/mL | 0.164 µg/mL | 0.12 µg/mL | 0.04 µg/mL | 0.075 µg/mL | 0.371 µg/mL | > 50 µg/mL | 1.4 fold | 1.1 fold | –
5329_C19 (PGT-136) (antibody) | – | – | – | – | – | – | – | – | – | – | – | – | – | – | – | – | IC50 [4]: > 50 µg/mL; IC50, single-round pseudovirus neutralization [28]: > 50000 ng/mL; IC50 [29]: > 50 µg/mL; IC50 [30]: > 50 µg/mL; IC50 [31]: > 50 µg/mL; IC50 [32]: 20.1 µg/mL; IC50 [33]: > 50 µg/mL; IC50, single-round pseudovirus neutralization [34]: > 50 µg/mL; neutralization IC50 [8]: > 50 µg/mL; IC50 [35]: > 50 µg/mL; IC50 [36]: > 50 µg/mL; IC50, pseudovirus neutralization [37]: > 50 µg/mL; IC50 [38]: > 50 µg/mL; IC50 [39]: 11 ng/mL
